Assays:
[1] = molecular target: human MDM2 (ubiquitin-protein ligase E3 MDM2), cell-free expressed with C-terminal HSV epitope tag and polyhistidine tag (UniProt Q00987)
[2] = molecular target: human protein kinase A catalytic subunit alpha, cell-free expressed with C-terminal HSV epitope tag and polyhistidine tag (UniProt P17612)
[3] = system: Human casein kinase II (CK), cell-free expressed with C-terminal HSV epitope tag and polyhistidine tag
[4] = molecular target: human p53 oncoprotein (cellular tumor antigen p53), cell-free expressed from pETBlue-2 with C-terminal HSV epitope tag and polyhistidine tag (UniProt P04637)

Q: How did the “phosphorylation of photo-transferred protein on microarray, anti-phosphotyrosine (RC20) detection” value (“phosphorylation” below) [1] turn out when “human recombinant Src pp60 tyrosine kinase (Invitrogen Corporation)” was run?
A: Both kinases heavily phosphorylate the MDM protein

Q: What about the “phosphorylation” value [2] of the same substance?
A: significant phosphorylation of CK and PKA

Q: What about the “phosphorylation” value [3] of the same substance?
A: significant phosphorylation of CK and PKA

Q: And the “phosphorylation” value [4]?
A: p53 is not phosphorylated by either kinase

From US20180017550
